Assay results reported in IntAct's records for PubMed 24768165.

B1: Protein wntless homolog (Homo sapiens), Q5T9L3 (parent)
chain: MAGAIIENMSTKKLCIVGGILLVFQIIAFLVGGLIAPGPTTAVSYMSVKCVDARKNHHKTKWFVPWGPNHCDKIRDIEEAIPREIEANDIVFSVHIPLPHMEMSPWFQFMLFILQLDIAFKLNNQIRENAEVSMDVSLAYRDDAFAEWTEMAHERVPRKLKCTFTSPKTPEHEGRYYECDVLPFMEIGSVAHKFYLLNIRLPVNEKKKINVGIGEIKDIRLVGIHQNGGFTKVWFAMKTFLTPSIFIIMVWYWRRITMMSRPPVLLEKVIFALGISMTFINIPVEWFSIGFDWTWMLLFGDIRQGIFYAMLLSFWIIFCGEHMMDQHERNHIAGYWKQVGPIAVGSFCLFIFDMCERGVQLTNPFYSIWTTDIGTELAMAFIIVAGICLCLYFLFLCFMVFQVFRNISGKQSSLPAMSKVRRLHYEGLIFRFKFLMLITLACAAMTVIFFIVSQVTEGHWKWGGVTVQVNSAFFTGIYGMWNLYVFALMFLYAPSHKNYGEDQSNGDLGVHSGEELQLTTTITHVDGPTEIYKLTRKEAQE

Variants of: B1
Details: with wnt3a_human WNT3A

| effect of a mutation on the interaction | Variant |
| --- | --- |
| with no effect | Q540A |
| with no effect | E541A |
| with no effect | E538A |

The next lines start with the variant.

| Variant | effect of a mutation on the interaction |
| --- | --- |
| K537A | disrupting interaction strength |
| R536A | with no effect |

Variants of: B1
Details: with wnt3a_human WNT3A
Remark: another data set of the same source

| effect of a mutation on the interaction | Variant |
| --- | --- |
| with no effect | Y425A |
